Publication PMC6780499, “Characterization, Recombinant Production and Structure-Function Analysis of NvCI, A Picomolar Metallocarboxypeptidase Inhibitor from the Marine Snail Nerita versicolor” (Marine Drugs, 2019)
Like-named read-outs stand apart in the source and are kept apart here. No end group written: not given here.

Experiments:
bTAFI = target: T1, bTAFI (Bos taurus, UniProt Q2KIG3); assay: Ki determination, tight-binding inhibition of metallocarboxypeptidase; type: biochemical, bovine; details: tight-binding equation fit; substrate AAFA 0.1mM; enzyme-inhibitor mixture not preincubated; 37 °C; means (n = 3) ± SD
T1 sequence (Q2KIG3 115-423): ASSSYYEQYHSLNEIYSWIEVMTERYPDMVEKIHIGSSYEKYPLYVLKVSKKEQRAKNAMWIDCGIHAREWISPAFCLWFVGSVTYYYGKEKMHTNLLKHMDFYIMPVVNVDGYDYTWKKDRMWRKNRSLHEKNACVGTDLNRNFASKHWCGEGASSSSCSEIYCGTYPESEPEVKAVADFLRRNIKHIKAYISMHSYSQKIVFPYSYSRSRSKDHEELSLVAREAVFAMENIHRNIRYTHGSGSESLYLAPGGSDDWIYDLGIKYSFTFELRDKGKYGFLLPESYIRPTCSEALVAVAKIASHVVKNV
Description: Inhibitory activities against CPA- and CPB-type forms (bovine and human variants of CPA1, CPA2, CPA4, CPB1, and TAFI) were assayed for all extracts, subject to the experimental conditions that enzyme (E), substrate (S) and inhibitor (I) concentrations as well as the [I]/[E] ratio and preincubation time followed the requirements for tight-binding inhibitor assays. Similar approaches were followed to measure the activities of proteases of different catalytic types, like pepsin, papain, trypsin and subtilisin [45, 46, 47, 48]. All assays were performed in triplicate at 25 °C in a multiplexed manner. For 96-well assays an iEMS spectrophotometer reader/dispenser FM (Labsystems, Finland) was used with a final reaction volume of 250 μL. […] The reactions were followed at 5 s intervals for 5 min and recorded as initial velocities. […]
The Ki values of natural and recombinant NvCI against bCPA1, hCPA1, hCPA2, rat CPA3, hCPA4, hCPB1, bTAFI, hTAFI, hCPD and hCPZ were determined by measuring the enzymatic residual activity (Vi/V0 = a) at different inhibitor concentrations and using a fixed enzyme and substrate concentrations as described above, where vi and v0 are the fraction of enzymatic activity in the presence and absence of inhibitor, respectively, in terms of initial velocities. […]

bCPA and hCPA1 = assay: Competitive (double) titration with the tight-binding inhibitor TCI; type: biochemical; details: competing assays with the similar tight-binding inhibitor TCI
[1] = Folding state and stability by CD at different pH and temperature; type: physicochemical; details: pH 2 to 10, 25 °C to 90 °C, 0.05–0.06 mg/ml
Description: The folding state and stability of NvCI was investigated on the natural and recombinant forms by CD. The proteins, either in 0.1% TFA (v/v) or 20mM sodium phosphate (pH 2.0, 6.5 or 8.0) were analyzed at 0.05–0.06 mg/ml, from 25 to 90 °C in a Jasco J-710 spectropolarimeter (Pfugnstadt, Germany) in the 190–320nm range. Additional analyses were made under folding conditions (20mM sodium phosphate, pH 8.0) in the absence and presence of reducing reagent (1 or 20 mM DTT), a redox-pair (1mM Cys + 0.5mM cystine), and either absence or presence of denaturant (8 M urea). Complementary ^1H-NMR experiments were performed in a 500MHz NMR (Bruker Advance) on rNvCI in 20 mM sodium phosphate (pH 2.0 and 6.5), in 90% ^1H2O + 10% D2O, at 298 K. DQF-COSY, NOESY, TOCSY and HSQC spectra were obtained in a TCI cryoprobe of 5mm and used for provisional backbone assignment.

[2] = tested on: serine, cysteine and aspartic proteases; assay: Inhibition of proteases of other catalytic types; type: biochemical; details: even at tenfold excess; pepsin, papain, trypsin and subtilisin assays, 25 °C, triplicate
Description: Inhibitory activities against CPA- and CPB-type forms (bovine and human variants of CPA1, CPA2, CPA4, CPB1, and TAFI) were assayed for all extracts, subject to the experimental conditions that enzyme (E), substrate (S) and inhibitor (I) concentrations as well as the [I]/[E] ratio and preincubation time followed the requirements for tight-binding inhibitor assays. Similar approaches were followed to measure the activities of proteases of different catalytic types, like pepsin, papain, trypsin and subtilisin [45, 46, 47, 48]. All assays were performed in triplicate at 25 °C in a multiplexed manner. For 96-well assays an iEMS spectrophotometer reader/dispenser FM (Labsystems, Finland) was used with a final reaction volume of 250 μL. For cuvette assays, a Cary 400 Bio spectrophotometer (Varian Inc., Palo Alto, CA, USA) spectrophotometer was used with a final reaction volume of 1 ml. The reactions were followed at 5 s intervals for 5 min and recorded as initial velocities. In the protease inhibition assays, mixtures of activity buffer, biological sample and enzyme were preincubated at 25 °C for 10min, before substrate addition. The assay conditions were as follows: for CPA-like enzymes, 7.0nM CPA, 0.1mM AAFP substrate in 20mM Tris-HCl pH 7.5, 500mMNaCl, 1% v/v dimethyl sulfoxide (DMSO), 0.05% w/v BRIJ-35 was used. […]

bCPA1 = target: T2, bCPA1 (Bos taurus, UniProt P00730); assay: Ki determination, tight-binding inhibition of metallocarboxypeptidase; type: biochemical, bovine
T2 sequence (P00730 111-419): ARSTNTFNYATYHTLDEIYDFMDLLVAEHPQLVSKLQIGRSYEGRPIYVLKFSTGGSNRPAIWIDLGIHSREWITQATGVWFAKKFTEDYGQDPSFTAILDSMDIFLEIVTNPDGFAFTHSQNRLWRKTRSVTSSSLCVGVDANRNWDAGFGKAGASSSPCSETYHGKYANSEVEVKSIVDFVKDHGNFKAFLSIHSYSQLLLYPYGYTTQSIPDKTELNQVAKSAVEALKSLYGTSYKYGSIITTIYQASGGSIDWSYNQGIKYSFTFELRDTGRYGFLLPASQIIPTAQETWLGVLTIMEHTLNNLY
Description: Inhibitory activities against CPA- and CPB-type forms (bovine and human variants of CPA1, CPA2, CPA4, CPB1, and TAFI) were assayed for all extracts, subject to the experimental conditions that enzyme (E), substrate (S) and inhibitor (I) concentrations as well as the [I]/[E] ratio and preincubation time followed the requirements for tight-binding inhibitor assays. Similar approaches were followed to measure the activities of proteases of different catalytic types, like pepsin, papain, trypsin and subtilisin [45, 46, 47, 48]. All assays were performed in triplicate at 25 °C in a multiplexed manner. For 96-well assays an iEMS spectrophotometer reader/dispenser FM (Labsystems, Finland) was used with a final reaction volume of 250 μL. For cuvette assays, a Cary 400 Bio spectrophotometer (Varian Inc., Palo Alto, CA, USA) spectrophotometer was used with a final reaction volume of 1 ml. The reactions were followed at 5 s intervals for 5 min and recorded as initial velocities. In the protease inhibition assays, mixtures of activity buffer, biological sample and enzyme were preincubated at 25 °C for 10min, before substrate addition. The assay conditions were as follows: for CPA-like enzymes, 7.0nM CPA, 0.1mM AAFP substrate in 20mM Tris-HCl pH 7.5, 500mMNaCl, 1% v/v dimethyl sulfoxide (DMSO), 0.05% w/v BRIJ-35 was used. For CPB-like enzymes, CPB 3.0nM CPB, 0.1mM AAFA substrate and activity buffer of 20 mM Tris-HCl pH [50].
The Ki values of natural and recombinant NvCI against bCPA1, hCPA1, hCPA2, rat CPA3, hCPA4, hCPB1, bTAFI, hTAFI, hCPD and hCPZ were determined by measuring the enzymatic residual activity (Vi/V0 = a) at different inhibitor concentrations and using a fixed enzyme and substrate concentrations as described above, where vi and v0 are the fraction of enzymatic activity in the presence and absence of inhibitor, respectively, in terms of initial velocities. The determination of Ki values was carried out on equilibrium conditions ([E0]/Ki ≤ 10), using a previously determined preincubation time of 15 min, required to establish enzyme-inhibitor equilibrium. Working temperature was 37 °C. The best estimates of Ki values were obtained by fitting the experimental data to the equation for tight-binding inhibitors by non-linear regression using the GraphPad Prisma 5 software (GraphPad Software, Inc., San Diego, CA, USA) at p < 0.05. The real Ki values against each of these A/B-type MCPs were calculated according to the equation described by Morrison and Copeland [19, 20].

Ki (bTAFI): 0.121 ± 0.0201 nM | inhibitory capability / maximum potential activity by competitive titration (bCPA and hCPA1): 50.4% | Ki (bCPA1; natural isoforms, apparent Ki, without correction by competing assays, read-out: derived Ki towards bCPA (apparent Ki values)): 0.027 ± 0.002 nM | Ki (bCPA1; tight-binding equation fit, equilibrium conditions, substrate AAFP 0.1mM, 20mM Tris-HCl pH 7.5, 500mM NaCl, preincubation 15 min, 37 °C, means (n = 3) ± SD, read-out: Ki): 0.0096 ± 0.0014 nM
Substance: NvCI: 53-residue, three-disulphide proteinaceous metallocarboxypeptidase inhibitor from the marine snail Nerita versicolor; major isoform; UniProt P86912 (FHVPDDRPCINPGRCPLVPDATCTFVCKAADNDFGYECQHVWTFEGQRVGCYA; disulfide (positions not given here); also: three disulphides, pairing not given here; UniProt P86912 1-53, looked up)
stability by CD spectra [1]: great stability and capacity to recover its spectral properties when returned to room conditions | inhibition of serine, cysteine and aspartic proteases [2]: unable to inhibit
